Consider 2 molecules from publication PMC5467231 (2017).

Test [1] has as its target recombinant human FGFR2/Fc chimera (Sino Biological 10824-H03H) (human, UniProt P21802 22-377). The test is described as follows: SPR.
For test [2], the target named is T1, recombinant human FGFR1/Fc chimera (Sino Biological 10616-H03H) (human, UniProt P11362 22-376).
T1 chain: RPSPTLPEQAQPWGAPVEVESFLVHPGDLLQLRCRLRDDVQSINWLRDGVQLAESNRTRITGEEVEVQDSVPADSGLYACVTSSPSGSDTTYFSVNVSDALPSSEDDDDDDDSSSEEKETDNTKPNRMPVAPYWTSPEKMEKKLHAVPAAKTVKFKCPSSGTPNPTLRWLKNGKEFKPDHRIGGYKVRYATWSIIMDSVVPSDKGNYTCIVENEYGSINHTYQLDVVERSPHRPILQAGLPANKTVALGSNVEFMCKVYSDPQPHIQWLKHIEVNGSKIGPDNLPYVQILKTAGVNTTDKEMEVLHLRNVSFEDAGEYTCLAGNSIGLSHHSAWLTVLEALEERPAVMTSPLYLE
The test is described as follows: SPR.

Chain of recombinant human FGFR2/Fc chimera (Sino Biological 10824-H03H) (P21802 22-377): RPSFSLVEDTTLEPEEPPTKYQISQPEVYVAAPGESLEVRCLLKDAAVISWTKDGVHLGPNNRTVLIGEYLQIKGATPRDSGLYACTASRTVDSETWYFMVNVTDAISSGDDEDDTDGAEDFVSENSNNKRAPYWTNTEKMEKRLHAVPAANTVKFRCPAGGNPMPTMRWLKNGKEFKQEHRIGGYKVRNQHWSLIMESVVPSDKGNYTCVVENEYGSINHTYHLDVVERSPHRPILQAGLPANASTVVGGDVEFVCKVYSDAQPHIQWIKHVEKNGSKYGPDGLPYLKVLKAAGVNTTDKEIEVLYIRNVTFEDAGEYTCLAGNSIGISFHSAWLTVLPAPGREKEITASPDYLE

B1: recombinant FGF4 (Peprotech AF-100-31) (ligand)
chain: APTAPNGTLEAELERRWESLVALSLARLPVAAQPKEAAVQSGAGDYLLGIKRLRRLYCNVGIGFHLQALPDGRIGGAHADTRDSLLELSPVERGVVSIFGVASRFFVAMSSKGKLYGSPFFTDECTFKEILLPNNYNAYESYKYPGMFIALSKNGKTKKGNRVSPTMKVTHFLPRL
B1: the Kd in test [1] turned out to be 6.94 nM; in test [2] it was 3.61 nM.

B2: recombinant FGF8a (R&D Systems 4745-F8-050) (ligand)
chain: QHVREQSLVTDQLSRRLIRTYQLYSRTSGKHVQVLANKRINAMAEDGDPFAKLIVETDTFGSRVRVRGAETGLYICMNKKGKLIAKSNGKGKDCVFTEIVLENNYTALQNAKYEGWYMAFTRKGRPRKGSKTRQHQREVHFMKRLPRGHHTTEQSLRFEFLNYPPFTRSLRGSQRTWAPEPR
Take B2: the Kd in test [1] came out at 31.5 nM; in test [2], 39.2 nM.
